B1: truncated βig-h3: recombinant human βig-h3 with EMI domain, all four fas-1 domains and RGD motif; residues 68-653 of SEQ ID NO: 1 (SEQ ID NO: 66) (protein, listed as Homo sapiens)
chain: WYQRKICGKSTVISYECCPGYEKVPGEKGCPAALPLSNLYETLGVVGSTTTQLYTDRTEKLRPEMEGPGSFTIFAPSNEAWASLPAEVLDSLVSNVNIELLNALRYHMVGRRVLTDELKHGMTLTSMYQNSNIQIHHYPNGIVTVNCARLLKADHHATNGVVHLIDKVISTITNNIQQIIEIEDTFETLRAAVAASGLNTMLEGNGQYTLLAPTNEAFEKIPSETLNRILGDPEALRDLLNNHILKSAMCAEAIVAGLSVETLEGTTLEVGCSGDMLTINGKAIISNKDILATNGVIHYIDELLIPDSAKTLFELAAESDVSTAIDLFRQAGLGNHLSGSERLTLLAPLNSVFKDGTPPIDAHTRNLLRNHIIKDQLASKYLYHGQTLETLGGKKLRVFVYRNSLCIENSCIAAHDKRGRYGTLFTMDRVLTPPMGTVMDVLKGDNRFSMLVAAIQSAGLTETLNREGVYTVFAPTNEAFRALPPRERSRLLGDAKELANILKYHIGDEILVSGGIGALVRLKSLQGDKLEVSLKNNVVSVNKEPVAEPDIMATNGVVHVITNVLQPPANRPQERGDELADSALEI
B2: fas-1 domain: recombinant protein containing the fourth fas-1 domain of human βig-h3 (SEQ ID NO: 64) (protein, listed as Homo sapiens)
chain: MGTVMDVLKGDNRFSMLVAAIQSAGLTETLNREGVYTVFAPTNEAFRALPPRERSRLLGDAKELANILKYHIGDEILVSGGIGALVRLKSLQGDKLEVSLKNNVVSVNKEPVAEPDIMATNGVVHVITNVL

Assays:
HUVEC = assay: Adhesion of endothelial cells to vitronectin (Example 13-1); assay type: cell-based, human
Method: Flat-bottomed 96-well ELISA plates (Costar, Corning, Inc., NY) were incubated overnight at 4° C. with 5 μg/ml of vitronectin (Promega, Madison, Wis.) and blocked for 1 hour at room temperature with PBS containing 2% bovine serum albumin (BSA).
Primary human umbilical vein endothelial cells (HUVEC) were cultured at 37° C. in 5% CO2 in M199 medium supplemented with 20% fetal bovine serum. For all the experiments, HUVECs were used at passage 4 or less. HUVEC cells were suspended in medium at a density of 3×10^5 cells/ml, and 0.1 ml of the cell suspension was pre-incubated with or without the indicated concentration of the truncated βig-h3, the fas-1 domain and Regenin for 40 min at 37° C., then added to each well of the coated. After incubation for 5 to 10 minutes at 37° C., unattached cells were removed by rinsing with PBS. Attached cells were then incubated for 1 hour at 37° C. in 50 mM citrated buffer (pH 5.0) containing 3.75 mM p-nitrophenyl-N-acetyl-Dglycosamide and 0.25% Triton X-100. Enzyme activity was blocked by adding 50 mM glycine buffer (pH 10.4) containing 5 mM EDTA, and the absorbance was measured at 405 nm in a Bio-Rad model 550 microplate reader.

HUVECs [1] = assay: Migration of endothelial cells to vitronectin, transwell (Example 13-2); assay type: cell-based, human; details: for IC50: read-out: half-inhibition of migration toward vitronectin observed at; for inhibition of migration to vitronectin: various concentrations, 4 to 6 hours
Method: Cell migration assays were done in transwell plates (8 μm pore size, Costar, Cambridge, Mass.). The undersurface of the membrane was coated with 5 μg/ml of vitronectin at 4° C. and blocked for 1 hour at room temperature with PBS containing 2% BSA. HUVECs were suspended in medium at a density of 3×10^5 cells/ml, and 0.1 ml of the cell suspension was pre-incubated with or without the indicated concentration of the truncated βig-h3, the fas-1 domain and Regenin for 40 min at 37° C., then added to the upper compartment of the filter. Cells were allowed to migrate for 4 to 6 hours at 37° C. The filters were fixed with 8% glutaraldehyde and stained with crystal violet, and non-migrating cells on the upper surface of the filter were removed by wiping with a cotton swab. The extent of cell migration was determined by light microscopy, and within each well, counting was done in nine randomly selected microscopic high power fields (x200).

HUVECs [2] = assay: Endothelial tube formation in Matrigel (Example 14); assay type: cell-based, human; details: for 70%-inhibition of tube formation observed at: concentration giving 70% inhibition; for inhibition of tube formation: various concentrations, 6 to 10 hours
Method: Matrigel (Chemicon, International Inc, Temecula, Calif.) was added (100 μl) into each well of a 96-well plate and polymerized for 30 minutes at 37° C. HUVECs were suspended in medium at a density of 3×10^5 cells/ml, and 0.1 ml of the cell suspension was pre-incubated with or without the indicated concentration of the truncated βig-h3, the fas-1 domain and Regenin for 40 min at 37° C., then seeded on the surface of the Matrigel. Cells were incubated for 6 to 10 hours at 37° C. The cells were then photographed, and branch points from 4 high-power fields (x200) were counted and averaged.

[3] = tested on: Murine melanoma cells (B16F10) tumor; assay: B16F10 tumor growth in BALB/c nude mice (Example 15-1); assay type: in vivo; details: for tumor growth inhibition compared with control: i.p. everyday from 7 days after inoculation
Method: Murine melanoma cells (B16F10) were cultured in RPMI 1640 containing 25 mM/L HEPES with 10% fetal bovine serum. Male BALB/c nude mice (5-6 weeks old) were implanted with 1×10^6 B16F10 cells into the flank subcutis and monitored tumor growth and neovascularization after systemic treatment with exogenous fas-1 domain (5 μM) or truncated βig-h3 (50 nM or 10 nM). Experimental groups were i.p. injected everyday from 7 days after tumor cell inoculation with the indicated concentration of fas-1 domain or truncated βig-h3 in a total volume of 0.1 ml PBS. The control group was given an equal volume of PBS each day. Each experimental group consisted of six to eight mice. Tumor sizes were measured using Vernier calipers every 2 to 3 days, and the measured values were substituted in the following equation (2) to calculate the volumes of the tumor. Volume of tumor=width^2×length×0.52. [Equation 2]
Wherein, ‘width’ is the shortest diameter.

[4] = various concentrations, vitronectin 5 μg/ml

Molecule	inhibition of adhesion to vitronectin (HUVEC; 500, 50 and 10 nM)	inhibition of adhesion to vitronectin (HUVEC; [4])	inhibition of migration of endothelial cells to vitronectin (HUVECs [1]; 500 nM)	IC50 (HUVECs [1]) [nM]	inhibition of migration to vitronectin (HUVECs [1])	70%-inhibition of tube formation observed at (HUVECs [2]) [nM]	inhibition of tube formation (HUVECs [2])	tumor growth inhibition ([3]; 10 nM (68 μg/kg), i.p. everyday)	tumor growth inhibition compared with control ([3]; 50 nM (340 μg/kg))	inhibition of adhesion to vitronectin (HUVEC; 500 nM)	tumor growth inhibition compared with control ([3]; 5 μM (10 mg/kg))
B1	clear dose-response effect	dose-dependent inhibition	strongly suppressed	50	dose-dependent inhibition	50	dose-dependent inhibition	inhibitory effect of tumor growth	equivalent levels of tumor growth inhibition	–	–
B2	–	dose-dependent inhibition	–	5000	dose-dependent inhibition	5000	dose-dependent inhibition	–	–	ineffective	equivalent levels of tumor growth inhibition
